{
  "source": "patent US20090270309A1",
  "about": "“USE OF LACTOFERRIN FRAGMENTS AND HYDROLYSATES” (priority 2005, published 2009)",
  "molecules": {"B1": {"name": "osteoprotegerin (protein, UniProt O00300 22-401, looked up)", "Tumor necrosis factor …": "ETFPPKYLHYDEETSHQLLCDKCPPGTYLKQHCTAKWKTVCAPCPDHYYTDSWHTSDECLYCSPVCKELQYVKQECNRTHNRVCECKEGRYLEIEFCLKHRSCPPGFGVVQAGTPERNTVCKRCPDGFFSNETSSKAPCRKHTNCSVFGLLLTQKGNATHDNICSGNSESTQKCGIDVTLCEEAFFRFAVPTKFTPNWLSVLVDNLPGTKVNAESVERIKRQHSSQEQTFQLLKLWKHQNKDQDIVKKIIQDIDLCENSVQRHIGHANLTFEQLRSLMESLPGKKVGAEDIEKTIKACKPSDQILKLLSLWRIKNGDQDTLKGLMHALKHSKTYHFPKTVTQSLKKTIRFLHSFTMYKLYQKLFLEMIGNQVQSVKISCL"}, "B2": {"name": "SEQ ID NO. 6: Bovine lactoferrin N-lobe, residues 1-280 of SEQ ID NO. 2, tryptic cleavage (protein, listed as Bos taurus)", "chain": "APRKNVRWCTISQPEWFKCRRWQWRMKKLGAPSITCVRRAFALECIRAIAEKKADAVTLDGGMVFEAGRDPYKLRPVAAEIYGTKESPQTHYYAVAVVKKGSNFQLDQLQGRKSCHTGLGRSAGWIIPMGILRPYLSWTESLEPLQGAVAKFFSASCVPCIDRQAYPNLCQLCKGEGENQCACSSREPYFGYSGAFKCLQDGAGDVAFVKETTVFENLPEKADRDQYELLCLNNSRAPVDAFKECHLAQVPSHAVVARSVDGKEDLIWKLLSKAQEKFGK"}, "B3": {"name": "full length recombinant human lactoferrin: Full-length recombinant human lactoferrin, comparator (protein, UniProt P02788 1-710, looked up)", "chain": "MKLVFLVLLFLGALGLCLAGRRRSVQWCAVSQPEATKCFQWQRNMRKVRGPPVSCIKRDSPIQCIQAIAENRADAVTLDGGFIYEAGLAPYKLRPVAAEVYGTERQPRTHYYAVAVVKKGGSFQLNELQGLKSCHTGLRRTAGWNVPIGTLRPFLNWTGPPEPIEAAVARFFSASCVPGADKGQFPNLCRLCAGTGENKCAFSSQEPYFSYSGAFKCLRDGAGDVAFIRESTVFEDLSDEAERDEYELLCPDNTRKPVDKFKDCHLARVPSHAVVARSVNGKEDAIWNLLRQAQEKFGKDKSPKFQLFGSPSGQKDLLFKDSAIGFSRVPPRIDSGLYLGSGYFTAIQNLRKSEEEVAARRARVVWCAVGEQELRKCNQWSGLSEGSVTCSSASTTEDCIALVLKGEADAMSLDGGYVYTAGKCGLVPVLAENYKSQQSSDPDPNCVDRPVEGYLAVAVVRRSDTSLTWNSVKGKKSCHTAVDRTAGWNIPMGLLFNQTGSCKFDEYFSQSCAPGSDPRSNLCALCIGDEQGENKCVPNSNERYYGYTGAFRCLAENAGDVAFVKDVTVLQNTDGNNNEAWAKDLKLADFALLCLDGKRKPVTEARSCHLAMAPNHAVVSRMDKVERLKQVLLHQQAKFGRNGSDCPDKFCLFQSETKNLLFNDNTECLARLHGKTTYEKYLGPQYVAGITNLKKCSTSPLLEACEFLRK", "modifications": "full-length recombinant", "notes": "Full-length recombinant human lactoferrin, comparator"}, "B4": {"name": "SEQ ID NO. 8: Bovine lactoferrin C-lobe, residues 285-689 of SEQ ID NO. 2, controlled tryptic hydrolysis (protein, listed as Bos taurus)", "chain": "SFQLFGSPPGQRDLLFKDSALGFLRIPSKVDSALYLGSRYLTTLKNLRETAEEVKARYTRVVWCAVGPEEQKKCQQWSQQSGQNVTCATASTTDDCIVLVLKGEADALNLDGGYIYTAGKCGLVPVLAENRKSSKHSSLDCVLRPTEGYLAVAVVKKANEGLTWNSLKDKKSCHTAVDRTAGWNIPMGLIVNQTGSCAFDEFFSQSCAPGADPKSRLCALCAGDDQGLDKCVPNSKEKYYGYTGAFRCLAEDVGDVAFVKNDTVWENTNGESTADWAKNLNREDFRLLCLDGTRKPVTEAQSCHLAVAPNHAVVSRSDRAAHVKQVLLHQQALFGKNGKNCPDKFCLFKSETKNLLFNDNTECLAKLGGRPTYEEYLGTEYVTAIANLKKCSTSPLLEACAFLTR"}, "B5": {"name": "SEQ ID NO. 5: Recombinant human lactoferrin N-lobe, residues 1-333 of SEQ ID NO. 4, expressed from baby hamster kidney cells (protein)", "chain": "GRRRRSVQWCAVSQPEATKCFQWQRNMRKVRGPPVSCIKRDSPIQCIQAIAENRADAVTLDGGFIYEAGLAPYKLRPVAAEVYGTERQPRTHYYAVAVVKKGGSFQLNELQGLKSCHTGLRRTAGWNVPIGTLRPFLNWTGPPEPIEAAVARFFSASCVPGADKGQFPNLCRLCAGTGENKCAFSSQEPYFSYSGAFKCLRDGAGDVAFIRESTVFEDLSDEAERDEYELLCPDNTRKPVDKFKDCHLARVPSHAVVARSVNGKEDAIWNLLRQAQEKFGKDKSPKFQLFGSPSGQKDLLFKDSAIGFSRVPPRIDSGLYLGSGYFTAIQNLR", "modifications": "Recombinant human lactoferrin N-lobe", "notes": "4, expressed from baby hamster kidney cells"}, "B6": {"name": "SEQ ID NO. 7: Bovine lactoferrin C-lobe, residues 345-689 of SEQ ID NO. 2, tryptic cleavage (protein, listed as Bos taurus)", "chain": "VVWCAVGPEEQKKCQQWSQQSGQNVTCATASTTDDCIVLVLKGEADALNLDGGYIYTAGKCGLVPVLAENRKSSKHSSLDCVLRPTEGYLAVAVVKKANEGLTWNSLKDKKSCHTAVDRTAGWNIPMGLIVNQTGSCAFDEFFSQSCAPGADPKSRLCALCAGDDQGLDKCVPNSKEKYYGYTGAFRCLAEDVGDVAFVKNDTVWENTNGESTADWAKNLNREDFRLLCLDGTRKPVTEAQSCHLAVAPNHAVVSRSDRAAHVKQVLLHQQALFGKNGKNCPDKFCLFKSETKNLLFNDNTECLAKLGGRPTYEEYLGTEYVTAIANLKKCSTSPLLEACAFLTR"}},
  "key": {"[1]": {"system": "osteoclast development in a bone marrow culture", "test": "Osteoclast development in mouse bone marrow culture (count of multinucleated osteoclast-like cells)", "format": "cell-based", "conditions": "for Concentration with significant inhibition of osteoclast development: FIG. 7; for Inhibition of osteoclast development in a bone marrow culture (in words): mouse bone marrow culture, 1 week, ANOVA P<0.0001", "procedure": "Bone marrow cultures were used to determine the effect of lactoferrin fragments on osteoclast development. The method used has been previously described (see Cornish, et al., (2001)). Bone marrow was obtained from the long bones of four to six week old Swiss male mice by flushing the marrow cavity with media. The cell suspension was incubated for two hours and the non-adherent cells were plated into 48-well plates and cultured in 1.25 vitamin D3 enriched media for 1 week with lactoferrin fragments at a range of concentrations. Cells were fixed and stained and multinucleated osteoclast-like cells were counted.\nA recombinant N-lobe fragment of full length recombinant human lactoferrin (SEQ ID NO. 5) and a lactoferrin C-lobe fragment (SEQ ID NO. 8) were tested. Osteoprotegerin was used as a positive inhibitor control. Full length recombinant human lactoferrin was also tested. The results are shown in FIGS. 6 and 7, as described above."}, "primary rat osteoblasts": {"system": "primary rat osteoblasts", "test": "Proliferation of primary rat osteoblasts (cell counts and [3H]-thymidine incorporation)", "format": "cell-based", "conditions": "for Mitogenic / proliferative effect on primary osteoblasts (in words): figure legends, significantly different from control by ANOVA, post hoc Dunnett's test; for Dose (ug/mL): minimum dose range that stimulates osteoblast proliferation: primary rat osteoblasts, Table 1", "procedure": "Osteoblasts were isolated by collagenase digestion from 20-day fetal rat ? viously described by Lowe, et al. (1991). Calvariae were dissected aseptically, and the frontal and parietal bones were stripped of their periosteum. Only the central portions of the bones, free from suture tissue, were collected. The calvariae were treated twice with phosphate buffered saline (PBS) containing 3 mM EDTA (pH 7.4) for 15 minutes at 37° C. in a shaking water bath. After washing once in PBS, the calvariae were treated twice with 3 ml of 1 mg/ml collagenase for 7 minutes at 37° C. After discarding the supernatants from digestions I and II, the calvariae were treated further two times with 3 ml of 2 mg/ml collagenase (30 mins, 37° C.). The supernatants of digestions III and IV were pooled, centrifuged, and the cells washed in Dulbecco's modified Eagle's medium (DME) with 10% fetal calf serum (FCS), suspended in DME/10% FCS, and placed in […] flasks. The cells were incubated under 5% CO2 and 95% air at 37° C. Confluence was reached by 5-6 days, at which time the cells were subcultured. After trypsinization using trypsin-EDTA (0.05%/0.53 mM), the cells were rinsed in minimum essential medium (MEM) with 5% FCS and resuspended in a fresh medium, then seeded at 5×10^4 cells/ml in 24-well plates (0.5 ml cell suspension per well, i.e., 1.4×10^4 cells/cm^2).\nProliferation studies (cell counts and thymidine incorporation) were performed both in actively growing and non-actively growing cell populations. To produce actively growing cells, sub-confluent populations (24 h after subculturing) were placed in fresh MEM containing 1% FCS and a lactoferrin fragment sample (see Table 1 below). To produce non-actively growing cells, sub-confluent populations were placed in serum-free medium with 0.1% bovine serum albumin plus a lactoferrin fragment sample. Cell numbers were analyzed at 6, 24, and 48 hours after the addition of lactoferrin fragment samples. The cell numbers were determined after detaching cells from the wells by exposure to trypsin/EDTA (0.05%/0.53 mM) for approximately 5 minutes at 37° C. Counting was performed in a haemocytometer chamber. [3H]-thymidine incorporation into actively growing and non-actively growing cells was assessed by pulsing the cells with [3H]-thymidine (1 μCi/well) two hours before the end of the incubation. The experiment was terminated at 6, 24, or 48 hours by washing the cells in MEM containing cold thymidine followed by the addition of 10% trichloroacetic acid. The precipitate was washed twice with ethanol:ether (3:1), and the wells desiccated at room temperature. The ? redissolved in 2 M KOH at 55° C. for 30 min, neutralized with 1 M HCl, and an aliquot counted for radioactivity. For both cell counts and thymidine incorporation, each experiment at each time point was performed at least 4 different times using experimental groups consisting of at least 6 wells.\nThe osteogenic response seen above was compared with that of insulin-like growth factor 1 (IGF-1), a well-recognized osteoblast mitogen. The magnitudes of response of the lactoferrin fragments were similar to IGF-1 in the same osteoblast cell culture system."}},
  "data": [
    {"molecule": "B1", "values": [
      {"measurement": "Concentration with significant inhibition of osteoclast development", "setting": "[1]; positive inhibitor control, P<0.01 (post hoc Dunnett's test)", "value": 10, "unit": "ng/mL"}
    ]},
    {"molecule": "B2", "values": [
      {"measurement": "Mitogenic / proliferative effect on primary osteoblasts (in words)", "setting": "primary rat osteoblasts", "value": "mitogenic to primary osteoblasts"},
      {"measurement": "Dose (ug/mL): minimum dose range that stimulates osteoblast proliferation", "setting": "primary rat osteoblasts", "value": "1 to 100", "unit": "µg/mL"}
    ]},
    {"molecule": "B3", "values": [
      {"measurement": "Inhibition of osteoclast development in a bone marrow culture (in words)", "setting": "[1]", "value": "inhibition of osteoclast development"}
    ]},
    {"molecule": "B4", "values": [
      {"measurement": "Mitogenic / proliferative effect on primary osteoblasts (in words)", "setting": "primary rat osteoblasts", "value": "mitogenic to primary osteoblasts"},
      {"measurement": "Dose (ug/mL): minimum dose range that stimulates osteoblast proliferation", "setting": "primary rat osteoblasts", "value": "1 to 100", "unit": "µg/mL"},
      {"measurement": "Concentration with significant inhibition of osteoclast development", "setting": "[1]; P<0.05 (post hoc Dunnett's test)", "value": 50000, "unit": "ng/mL"},
      {"measurement": "Inhibition of osteoclast development in a bone marrow culture (in words)", "setting": "[1]", "value": "inhibition of osteoclast development"}
    ]},
    {"molecule": "B5", "values": [
      {"measurement": "Mitogenic / proliferative effect on primary osteoblasts (in words)", "setting": "primary rat osteoblasts", "value": "osteoblast proliferative effects"},
      {"measurement": "Dose (ug/mL): minimum dose range that stimulates osteoblast proliferation", "setting": "primary rat osteoblasts", "value": "0.1 to 10", "unit": "µg/mL"},
      {"measurement": "Inhibition of osteoclast development in a bone marrow culture (in words)", "setting": "[1]", "value": "inhibition of osteoclast development"}
    ]},
    {"molecule": "B6", "values": [
      {"measurement": "Mitogenic / proliferative effect on primary osteoblasts (in words)", "setting": "primary rat osteoblasts", "value": "mitogenic to primary osteoblasts"},
      {"measurement": "Dose (ug/mL): minimum dose range that stimulates osteoblast proliferation", "setting": "primary rat osteoblasts", "value": "1 to 100", "unit": "µg/mL"}
    ]}
  ]
}
